In article PMC8657457:

Target: CyOFP1
Test: SEC; FPLC on Superdex 75 10/300 GL; elution in 20 mM Tris-HCl (pH 7.80), 200 mM NaCl; oligomeric state from the elution volume against molecular weight standards

CyOFP1
stoichiometry N: 2
